T1: recombinant human BCMA-his fusion protein (ACRO Biosystem, Cat. No. BCA-H522y) (human, UniProt Q02223 1-54)
T1 construct: extracellular domain; Bought protein; also called huBCMA-his; hu BCMA-his; not shown: His tag
T1 sequence (looked up): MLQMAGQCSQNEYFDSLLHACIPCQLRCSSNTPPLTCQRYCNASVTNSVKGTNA

T2: recombinant human BCMA-mFc fusion protein (human; mouse)
T2 construct: also called huBCMA-mFc
T2 chain: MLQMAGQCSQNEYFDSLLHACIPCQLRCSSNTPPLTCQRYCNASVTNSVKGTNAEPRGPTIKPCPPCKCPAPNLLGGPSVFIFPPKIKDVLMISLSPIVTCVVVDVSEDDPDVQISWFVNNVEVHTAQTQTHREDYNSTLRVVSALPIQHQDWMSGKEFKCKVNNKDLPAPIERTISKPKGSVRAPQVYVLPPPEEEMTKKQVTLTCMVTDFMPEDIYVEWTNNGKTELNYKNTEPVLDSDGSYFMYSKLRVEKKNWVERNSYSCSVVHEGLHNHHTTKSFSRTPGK

B1: human-mouse chimeric antibody c-mAb2 (antibody, human IgG1, V domains shown)
VH: QVQLQQSDAELVKPGTSVKISCKVSGYTFTDHTIHWMKQRPEQGLEWIGYIYPRNGNTKYNEKFKGKATLTADKSSSTAYMHLNSLTSEDSAVYFCARYDYDGYFDVWGTGTTVTVSS
VL: DVVMTQTPLSLPVSLGDQASISCRSSQSHVHSDGHTYLHWYLQKPGQSPELLIYKVSNRFSGVPDRFSGSGSGTDFTLKISRVEAEDLGVYFCSQNTHFPWTFGGGTKLEIK
notes: not shown: human IgG1 heavy chain constant region, GenBank No. AK303185.1; human kappa light chain constant region, GenBank No. MG815648.1
B2: human-mouse chimeric antibody c-mAb3 (antibody, human IgG1, V domains shown)
VH: EVQLQQSGPELVKPGASVKILCKASGYTITDYNMDWVKRSHGKSLEWIGNINPHNGGSIYNQKFKGKATLTVDKSSSTAFMELRSLTSEDTAVYYCARGDATLVLDYWGQGTSLTVSS
VL: DIVLTQSPASLAVSLGQRATISCRASKSVSTSGLSYMHWYQQKPGQPPKVLIYLASNLESGVPARFSGSGSGTDFTLNIHPVEEEDAATYYCQHSRELPPTFGAGTKLELK
notes: as for B1

Assays:
[1] = molecular target: T1, recombinant human BCMA-his fusion …; assay: ELISA, coated antigen
Experimental: Procedures: huBCMA-his and cynoBCMA-his antigens were prepared into 0.5 μg/mL coating solutions with PBS (pH 7.4). The coating solutions were added to a microplate at 100 μL/well and incubated at 4° C. overnight. The residual coating solution was discarded before 3% BSA was added at 300 μL/well, and the plate was blocked for 3 h at room temperature. The microplate was washed once with PB ST at 300 The stock humanized monoclonal antibody solutions were serially 3-fold diluted to the 11th concentration. The dilutions were added to the microplate at 100 μL/well. After a 1-h incubation at room temperature, the microplate was washed thrice with PBST at 300 The HRP-conjugated 6*His, His-Tag antibody was 25,000-fold diluted with 1% BSA-PBST and added at 100 After another 1-h incubation at room temperature, the microplate was washed thrice with PB ST at 300 μL/well and dried. The TMB chromogenic solution was added at 100 μL. After a 5-min reaction at room temperature, 2 M H2504 was added at 100 μL/well to terminate the reaction. The microplate was placed on a microplate reader (Molecular Devices, SPECTRA Max plus 384) and the absorbance OD450 value was read at 450 nm wavelength.

[2] = molecular target: T2, recombinant human BCMA-mFc fusion …; assay: indirect ELISA, coated antigen
Experimental: Procedures: Human, mouse and monkey BCMA antigens were prepared into 0.5 μg/mL coating solutions with PBS buffer. The coating solutions were added to a microplate at 100 μL/well and incubated at 4° C. overnight. The residual coating solution was discarded before 3% BSA was added at 300 μL/well, and the plate was blocked for 3 h at room temperature. The microplate was washed once with PB ST (PBS containing 0.1% of TWEEN 20) at 300 μL/well. The human-mouse chimeric monoclonal antibodies were serially 3-fold diluted from 10 μg/mL to the 9th concentration. The dilutions were added to the microplate at 100 μL/well. After a 1-h incubation at room temperature, the microplate was washed thrice with PB ST at 300 μL/well. The mouse anti-human IgG Fc antibody [HRP] mAb was 25,000-fold diluted with 1% BSA-PBST and added at 100 μL/well. After another 1-h incubation at room temperature, the microplate was washed thrice with PBST at 300 μL/well and dried. The TMB chromogenic solution was added at 100 μL/well. After a 5-min reaction at room temperature, 2 M H₂SO₄ was added at 100 μL/well to terminate the reaction. The microplate was placed on a microplate reader (Molecular Devices, SPECTRA Max plus 384) and the absorbance OD450 value was read at 450 nm wavelength.

[3] = molecular target: T1, recombinant human BCMA-his fusion …; assay: competitive ELISA, coated huBCMA-his, competitor 83A10-biotin
Experimental: The 96-well microplate was treated with 100 μL of 0.5 μg/mL huBCMA-his in PBS and incubated overnight at 4° C. The plate was then washed thrice with PBS washing buffer containing 0.1% of Tween-20 and blocked with 300 μL of PBS containing 1% of BSA for 2 h. 100 μL of each BCMA antibody was added to the plate. […] The plate was incubated at 37° C. for 1 h, and unbound secondary antibody was washed with PBS washing buffer containing 0.1% of Tween-20. The TMB chromogenic solution was added at 100 μL/well. After a 5-min reaction at room temperature, 2 M H₂SO₄ was added at 100 μL/well to terminate the reaction. The microplate was placed on a microplate reader (Molecular Devices, SPECTRA Max plus 384) and the absorbance OD450 value was read at 450 nm wavelength.

[4] = molecular target: T1, recombinant human BCMA-his fusion …; assay: SPR (Biacore T200), anti-His capture on CM5, 1:1 fit
Experimental: In this example, the antigen-antibody binding kinetics and affinity were determined by the BIACORE method.
Procedures: The anti-histidine antibody (GE, His capture Kit, Cat. No. 28995056) was conjugated to the Sereis S Sensor Chip CMS to capture the test articles, thus acquiring the binding kinetic and affinity data of the antigen, as an analyte, to the test articles. The initial concentration for detecting the binding of the antigen and the test articles was 10 nM. […] The Start up flushing process (1×HBS-EP+buffer) was performed at least thrice before loading to equilibrate the system. The association and dissociation tendencies between the antigen and the test articles were detected. When the dissociation was completed, a regeneration reagent was loaded for regeneration before the detection of the next concentration was performed. After the detection was finished, the data were fitted by using a 1:1 Binding fitting mode in data analysis software (Biacore T200 Evaluation Software).

Row | Binder | EC50 [1] | EC50 [2] | IC50 [3] | Kd [4] | koff [4] | kon [4]
1 | B1 | 0.0257 nM | 0.427 nM | 8 mg/L | 1.45 nM | 0.0679 s⁻¹ | 4.68e+07 M⁻¹ s⁻¹
2 | B2 | 0.0155 nM | 0.794 nM | 1 mg/L | 0.38 nM | 0.00178 s⁻¹ | 4.69e+06 M⁻¹ s⁻¹
